These results are taken from US20080039410A1, “Inositol 1,4,5-Trisphosphate Receptor Mutants and Uses Thereof” (priority 2004, published 2008).

This test addresses T1, S2+ InsP3R-1 (Rattus norvegicus, UniProt P29994, S1756E).
T1 construct: The entire receptor DNA was excised from the plasmid using EcoRI and ligated into the plasmid MXT-1; expressed in transfected cells; host or cells: DT-40 3ko (chicken B cells lacking all InsP3R), co-transfected with m3 muscarinic receptor and HcRed
Description: Flash photolysis of caged InsP3 (ci-IP3/PM), Fluo-4, DT-40 3ko cells expressing S2+ InsP3R-1 constructs. In kind it is cell-based. As to conditions: UV flash 0.5-5 ms. As to the method:
Transfected cells were simultaneously loaded by incubation with the visible wavelength indicator Fluo-4 and a cell permeable form of caged-inositol trisphosphate (ciIP3/PM) for 30 min. Ci-IP3/PM is a homologue of cm-IP3/PM [45] The 2- and 3-hydroxyls of the inositol ring were protected by an isopropylidene group in ci-IP3/PM, and were protected by a methoxymethylene group in cm-IP3/PM. Like cm-IP3/PM, ci-IP3/PM diffuses across cell membranes and induces internal calcium release upon photo-uncaging. A further period of approximately 30 min was allowed for de-esterification of both dye and cage. Cells were illuminated at 488±10 nm and fluorescence collected through a 525±25 nm band pass filter and captured using the Till Photonics imaging suite. […] Photolytic release was performed as previously described using a pulsed Xenon arc lamp (Till Photonics). […]
Transfected cells were simultaneously loaded with the visible wavelength indicator Fluo-4 and a cell-permeable form of caged inositol trisphosphate (ci-IP3/PM) for 30 min. ci-IP3/PM is a homologue of cm-IP3/PM. […] Cells were illuminated at 488±10 nm and fluorescence collected through a 525±25-nm bandpass filter and captured using the Till Photonics imaging suite. […]

Entries after “also recorded” stand apart in the source; their conditions may differ.

T1 sequence (P29994 1-2749 isoform P29994-3 S1755E): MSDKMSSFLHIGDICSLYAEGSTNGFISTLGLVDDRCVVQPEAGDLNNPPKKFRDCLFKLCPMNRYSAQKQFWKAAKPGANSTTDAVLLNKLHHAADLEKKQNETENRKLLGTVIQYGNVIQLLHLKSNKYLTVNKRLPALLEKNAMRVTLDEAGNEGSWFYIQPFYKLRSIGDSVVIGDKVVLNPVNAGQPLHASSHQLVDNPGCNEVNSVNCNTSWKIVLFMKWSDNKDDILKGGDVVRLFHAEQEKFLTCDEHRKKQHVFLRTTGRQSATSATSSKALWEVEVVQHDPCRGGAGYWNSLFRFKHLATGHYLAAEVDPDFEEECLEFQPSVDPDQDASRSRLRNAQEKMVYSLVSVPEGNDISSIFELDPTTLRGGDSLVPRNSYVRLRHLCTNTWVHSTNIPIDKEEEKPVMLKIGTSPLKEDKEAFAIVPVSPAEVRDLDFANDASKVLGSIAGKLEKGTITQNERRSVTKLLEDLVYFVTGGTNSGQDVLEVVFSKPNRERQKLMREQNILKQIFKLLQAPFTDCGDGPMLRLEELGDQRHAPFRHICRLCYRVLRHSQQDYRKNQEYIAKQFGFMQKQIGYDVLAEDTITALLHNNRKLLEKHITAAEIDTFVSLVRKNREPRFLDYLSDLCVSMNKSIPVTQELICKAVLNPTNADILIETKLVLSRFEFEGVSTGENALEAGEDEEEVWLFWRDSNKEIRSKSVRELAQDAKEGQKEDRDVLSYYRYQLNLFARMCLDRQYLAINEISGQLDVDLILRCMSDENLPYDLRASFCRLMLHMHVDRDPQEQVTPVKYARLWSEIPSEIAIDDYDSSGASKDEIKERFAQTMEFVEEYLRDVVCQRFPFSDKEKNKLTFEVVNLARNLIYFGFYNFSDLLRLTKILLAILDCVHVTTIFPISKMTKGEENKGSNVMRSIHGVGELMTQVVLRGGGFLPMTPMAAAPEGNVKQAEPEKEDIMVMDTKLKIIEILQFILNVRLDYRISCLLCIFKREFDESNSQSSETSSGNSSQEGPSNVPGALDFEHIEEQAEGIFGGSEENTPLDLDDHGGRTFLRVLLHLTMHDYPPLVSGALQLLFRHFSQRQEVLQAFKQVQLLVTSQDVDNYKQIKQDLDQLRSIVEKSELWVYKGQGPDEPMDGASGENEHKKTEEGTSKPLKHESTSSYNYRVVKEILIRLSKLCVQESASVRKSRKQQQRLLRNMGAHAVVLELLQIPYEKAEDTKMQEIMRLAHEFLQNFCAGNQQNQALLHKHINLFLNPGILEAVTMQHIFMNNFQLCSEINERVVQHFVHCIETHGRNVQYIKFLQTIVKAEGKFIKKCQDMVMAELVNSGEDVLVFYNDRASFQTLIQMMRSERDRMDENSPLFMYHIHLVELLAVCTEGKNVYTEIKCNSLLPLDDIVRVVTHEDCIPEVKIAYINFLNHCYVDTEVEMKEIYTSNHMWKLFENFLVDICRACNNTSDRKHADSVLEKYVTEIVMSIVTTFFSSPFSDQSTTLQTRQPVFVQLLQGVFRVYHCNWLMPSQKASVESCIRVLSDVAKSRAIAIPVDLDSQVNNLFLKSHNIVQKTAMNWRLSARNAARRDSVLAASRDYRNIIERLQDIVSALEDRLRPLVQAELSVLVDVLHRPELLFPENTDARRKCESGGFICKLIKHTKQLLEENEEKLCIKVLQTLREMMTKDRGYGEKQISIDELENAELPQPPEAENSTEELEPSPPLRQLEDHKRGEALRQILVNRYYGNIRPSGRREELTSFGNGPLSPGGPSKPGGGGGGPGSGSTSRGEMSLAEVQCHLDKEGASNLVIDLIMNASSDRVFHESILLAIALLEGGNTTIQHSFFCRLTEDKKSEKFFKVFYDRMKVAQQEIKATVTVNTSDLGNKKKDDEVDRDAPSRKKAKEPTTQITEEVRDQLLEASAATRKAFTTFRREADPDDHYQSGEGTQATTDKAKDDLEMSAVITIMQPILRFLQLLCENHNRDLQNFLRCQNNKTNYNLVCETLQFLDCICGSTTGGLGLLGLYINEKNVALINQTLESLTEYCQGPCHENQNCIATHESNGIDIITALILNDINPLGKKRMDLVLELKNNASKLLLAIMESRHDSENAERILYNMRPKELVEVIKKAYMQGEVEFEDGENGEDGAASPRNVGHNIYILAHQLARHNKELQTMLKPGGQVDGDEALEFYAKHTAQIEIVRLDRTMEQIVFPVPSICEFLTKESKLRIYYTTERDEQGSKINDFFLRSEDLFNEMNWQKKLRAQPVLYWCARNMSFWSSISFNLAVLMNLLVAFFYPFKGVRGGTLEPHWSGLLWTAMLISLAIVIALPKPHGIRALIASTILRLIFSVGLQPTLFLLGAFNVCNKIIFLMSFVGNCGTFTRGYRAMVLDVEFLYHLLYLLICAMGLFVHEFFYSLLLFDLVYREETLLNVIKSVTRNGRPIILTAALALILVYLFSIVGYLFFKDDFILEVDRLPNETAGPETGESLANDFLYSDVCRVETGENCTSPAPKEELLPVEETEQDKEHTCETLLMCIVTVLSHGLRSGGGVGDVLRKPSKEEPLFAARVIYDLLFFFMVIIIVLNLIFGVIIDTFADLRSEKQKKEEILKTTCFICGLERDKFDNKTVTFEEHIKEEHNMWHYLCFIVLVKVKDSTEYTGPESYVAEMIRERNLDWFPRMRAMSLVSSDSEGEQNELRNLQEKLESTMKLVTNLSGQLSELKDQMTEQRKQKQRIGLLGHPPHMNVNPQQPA

As to “S2+SE: phosphomimetic S2+ InsP3R-1, long splice variant of S1755E”, the “response to photolysis of ci-IP3 versus nonphosphorylatable mutant” value was “more robustly; also recorded: more sensitive than S2+SA”.
